{
  "source": "paper PMC10636607",
  "about": "(2023)",
  "binders": {"B1": {"name": "4E10 Fab (WT) (Fab, V domains shown)", "VH": "QVQLVQSGAEVKRPGSSVTVSCKASGGSFSTYALSWVRQAPGRGLEWMGGVIPLLTITNYAPRFQGRITITADRSTSTAYLELNSLRPEDTAVYYCAREGTTGWGWLGKPIGAFAHWGQGTLVTVSS", "VL": "EIVLTQSPGTQSLSPGERATLSCRASQSVGNNKLAWYQQRPGQAPRLLIYGASSRPSGVADRFSGSGSGTDFTLTISRLEPEDFAVYYCQQYGQSLSTFGQGTKVEVK"}, "B2": {"name": "COV44-62 Fab (WT) (Fab, V domains shown)", "VH": "QMQLMQSGAEVKKPGASVTVSCKASGDTFSDYRIHWVRQAPGQGLEWMGRMNPKSGDTNFAQKFQGRVTMTRDMSINTAYMTLSGLTFDDTALYYCASLLIVGGFDPLDDFEVWGQGTMVTISS", "VL": "QSALTQPPSASGSPGQSVTISCSGTSSDVGGYNFVSWYQHHPGKAPKILIYEVTKRPSGVPDRFSGSKSGNTASLTVSGLQAEDEADYYCSSYGGTNNLLFGGGTKLTVL"}, "B3": {"name": "5J8 Fab (WT) (Fab, V domains shown)", "VH": "EVQLVESGPGLVKPSDILSLTCAVSGYSISSNYYWGWIRQPPGKGLEWIGSIYHSGSTYYKPSLESRLGISVDTSKNQFSLKLSFVSAADTAVYYCARHVRSGYPDTAYYFDKWGQGTLVTVSS", "VL": "SYVLTQPPSVSVAPGETARISCGGNNIGTKVLHWYQQTPGQAPVLVVYDDSDRPSGIPERFSGSNSGNTATLTISRVEVGDEADYYCQVWDISTDQAVFGGGTKLTVL"}, "B4": {"name": "GAR12 Fab (WT) (Fab, V domains shown)", "VH": "EVQLVQSGGGLVQPGGSLRLSCAASGFTFSSYAMSWVRQAPGKGLEWVLSISGSGGSTYYADSVKGRFTISIDNSKKTVYLQMNSLRAEDTAVYYCAKSGEQQLVQAEYFHHWGQGTLVTVSS", "VL": "DIQMTQSPSTLSASVGDRVTITCRASQSIGRWLAWYQQKPGKAPKLLIYDASSLESGVPSRFSGSGFGTEFTLTISSLQPDDFATYYCQQCDSLLTFGGGTKLEIK"}, "B5": {"name": "GAR12 Fab VL D50K (Fab, V domains shown)", "VH": "B4 VH", "VL": "B4 VL with D50K"}, "B6": {"name": "3E1 Fab (WT) (Fab, V domains shown)", "VH": "QVQLQESGPGLVKPSETLSLTCSVSGASISSYYWIWIRQPAGKGLEWIGRFYTSGSPNYNPSLRSRVTMSVDTSKNQFSLKLTSVTAADTAVYYCAREEHITFGGVIVRYWGQGTLVTVSP", "VL": "DIQMTQSPATLSASVGDRVSITCRASQSISSWLAWYQQKPGKAPKLLIYKASSLESGVPSRFSGSGSGSEFTLTISSLQPDDFAIYYCQQYNSYPWTFGQGTKVEIK"}, "B7": {"name": "Fab234 (WT) (Fab, V domains shown)", "VH": "EVQLVESGGGLVKPGGSLRLSCAASGFNFSTHIMNWVRQAPGKGLEWVSSISSSGTYIYYADSMKGRFTISRDNPKNSLYLQMNSLRAEDTAVYYCARARGFIQFHYYMDVWGKGTTVAVSS", "VL": "SYVLTQPPSVSVAPGKTARITCGGNNIGSKSVHWHQQRPGQAPVLVVYDDKIRPSGIPERFSGSNSGNTATLIISRVEAGDEADYYCQVWHSSSDPVVFGGGTKLTVL"}, "B8": {"name": "HC84.26.5D Fab (WT) (Fab, V domains shown)", "VH": "VQPVQSGAEVKKPGSSVKVSCEASGGTHSNYVITWVRQAPGQGLEWMGGFIPDFRTAMYAQGFQGRVTITADESTSLAYMELTNLRSEDTAVYYCARGPLSRGYYDYWGPGTLVTVSS", "VL": "YVLTQPPSVSVAPGQTASITCSGDKLGDKYVSWYQQRPGQSPVLVLYQDSKRPSGIPERFSGSNSGNTATLTISGTQAMDEADYYCQAWDSSALVFGGGTKLTVL"}},
  "assay_in_all_cases": "BLI",
  "key": {"[1]": {"target": "His-tagged HIV Env MPER peptide (HIV)"}, "[2]": {"target": "T1, biotinylated SARS-CoV-2 fusion peptide (SARS-CoV-2, biotin on the N-terminus)", "T1 peptide": "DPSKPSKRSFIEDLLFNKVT"}, "[3]": {"target": "T2, biotinylated influenza hemagglutinin (HA) from H1N1 A/California/07/2009 (influenza A virus H1N1 …)"}, "[4]": {"target": "His6-tagged SARS-CoV-2 receptor-binding domain (SARS-CoV-2, UniProt P0DTC2 319-541)"}, "[5]": {"target": "T2, biotinylated influenza hemagglutinin …", "remark": "listed apart in the source"}, "[6]": {"target": "T3, biotinylated C-terminal αTSR domain of P. falciparum circumsporozoite protein (P. falciparum, UniProt Q7K740 310-375, biotinylated)", "T3 chain": "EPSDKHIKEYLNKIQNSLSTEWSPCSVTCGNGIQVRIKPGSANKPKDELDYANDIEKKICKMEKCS"}, "[7]": {"target": "HCV (isolate H77) E2 domain protein (hepatitis C virus (isolate H77))"}},
  "note": "Positions count from the first letter of the chain named. In names and notes the source's numbering stands. Read-outs that look alike come from different tables or passages of the source.",
  "data": [
    {"binder": "B1", "values": [
      {"measurement": "Kd", "setting": "[1]", "value": 9.1, "unit": "nM"}
    ]},
    {"binder": "B2", "values": [
      {"measurement": "Kd", "setting": "[2]", "value": 26, "unit": "nM"}
    ]},
    {"binder": "B3", "values": [
      {"measurement": "Kd", "setting": "[3]", "value": 4, "unit": "nM"}
    ]},
    {"binder": "B4", "values": [
      {"measurement": "Kd", "setting": "[4]", "value": 3.5, "unit": "nM"}
    ]},
    {"binder": "B5", "values": [
      {"measurement": "Kd", "setting": "[4]", "value": 153, "unit": "nM"}
    ]},
    {"binder": "B6", "values": [
      {"measurement": "Kd", "setting": "[5]", "value": 6.9, "unit": "nM"}
    ]},
    {"binder": "B7", "values": [
      {"measurement": "Kd", "setting": "[6]", "value": 0.2, "unit": "nM"}
    ]},
    {"binder": "B8", "values": [
      {"measurement": "Kd", "setting": "[7]", "value": 0.9, "unit": "nM"}
    ]}
  ]
}
